Here are results for one substance from US7442159.

Assay [1] has as its target Stoffel fragment of Thermus aquaticus DNA polymerase I fused to p3, displayed on phage (pHEN1-Stoffel) (Thermus aquaticus; filamentous bacteriophage) (UniProt P19821). In words: phage ELISA, plate coated with anti-Taq antibody, anti-M13-HRP detection; 10^9 phage particles of the pelB leader phagemid pHEN1-Stoffel. In general terms: An ELISA detects its analyte on a solid surface through an enzyme-linked reagent.

For assay [2] the target is unchanged. In words: phage ELISA, plate coated with anti-Taq antibody, anti-M13-HRP detection; 10^7 phage particles of clone 10 (selected leader).

Sequence of UniProt P19821 (P19821 290-832 limits assumed): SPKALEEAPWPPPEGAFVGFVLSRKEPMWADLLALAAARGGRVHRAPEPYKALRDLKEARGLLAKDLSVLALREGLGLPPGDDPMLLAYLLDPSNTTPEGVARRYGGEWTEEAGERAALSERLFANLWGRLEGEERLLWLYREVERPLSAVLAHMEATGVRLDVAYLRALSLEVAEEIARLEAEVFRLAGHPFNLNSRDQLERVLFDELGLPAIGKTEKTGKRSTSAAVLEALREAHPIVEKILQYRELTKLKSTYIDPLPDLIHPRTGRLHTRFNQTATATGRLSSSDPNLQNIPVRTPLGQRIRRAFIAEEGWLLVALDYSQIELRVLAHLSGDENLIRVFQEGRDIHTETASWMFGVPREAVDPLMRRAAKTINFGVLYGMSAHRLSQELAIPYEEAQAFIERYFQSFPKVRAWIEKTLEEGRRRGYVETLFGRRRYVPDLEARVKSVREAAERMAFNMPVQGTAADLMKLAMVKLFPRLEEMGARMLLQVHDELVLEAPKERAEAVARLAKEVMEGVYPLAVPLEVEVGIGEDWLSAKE

Turning to anti-Taq antibody (Taqstart, Clontech), the signal to noise ratio stood at 1.46 in assay [1] and 1.47 in assay [2].
